# Data: patent publication US20090136977
# B1: ATase1 (acetyltransferase 1) with a myc tag at the C-terminus (protein)
# chain: MAPYHIRKYQESDRKSVVGLLSRGMAEHAPATFRRLLKLPRTLILLLGGALALLLVSGSWILALVFSLSLLPALWFLAKKPWTRYVDIALRTDMSDITKSYLSECGSCFWVGESEEKVVGTVGALPVDDPTLREKRLQLFHLSVDNEHRGQGIAKALVRTVLQFARDQGYSEVVLDTSNIQLSAMGLYQSLGFKKTGQSFFHVWARLVDLHTVHFIYHLPSAQAGRL
# B2: ATase2 (acetyltransferase 2) with a myc tag at the C-terminus (protein)
# chain: MAPCHIRKYQESDRQWVVGLLSRGMAEHAPATFRQLLKLPRTLILLLGGPLALLLVSGSWLLALVFSISLFPALWFLAKKPWTEYVDMTLCTDMSDITKSYLSERGSCFWVAESEEKVVGMVGALPVDDPTLREKRLQLFHLFVDSEHRRQGIAKALVRTVLQFARDQGYSEVILDTGTIQLSAMALYQSMGFKKTGQSFFCVWARLVALHTVHFIYHLPSSKVGSL
# Assays:
# [1] = biological target: BACE1Arg (Lys-to-Arg mutant form of BACE1), P56817
# [2] = biological target: affinity purified BACE1 (BACE1-myc, wild type), P56817
# affinity purified BACE1 (BACE1-myc, wild type), P56817, sequence (P56817 22-501): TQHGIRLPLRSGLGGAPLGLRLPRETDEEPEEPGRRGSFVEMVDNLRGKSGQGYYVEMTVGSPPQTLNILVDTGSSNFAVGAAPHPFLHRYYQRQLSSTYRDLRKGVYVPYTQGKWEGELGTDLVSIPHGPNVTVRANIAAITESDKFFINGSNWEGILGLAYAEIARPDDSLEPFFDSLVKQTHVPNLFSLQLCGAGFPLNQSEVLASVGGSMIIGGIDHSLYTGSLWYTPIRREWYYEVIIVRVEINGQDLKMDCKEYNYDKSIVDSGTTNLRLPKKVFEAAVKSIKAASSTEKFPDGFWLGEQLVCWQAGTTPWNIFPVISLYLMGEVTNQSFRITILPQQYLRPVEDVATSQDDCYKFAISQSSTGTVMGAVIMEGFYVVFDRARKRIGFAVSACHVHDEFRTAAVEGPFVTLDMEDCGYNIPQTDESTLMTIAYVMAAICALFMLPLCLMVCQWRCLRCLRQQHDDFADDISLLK
# BACE1Arg (Lys-to-Arg mutant form of BACE1), P56817, sequence (P56817 other isoform, or with tags, fused parts or gaps mutant): as the sequence (P56817 22-501) above, with K105R, K254R, K258R, K264R, K278R, K279R, K286R counted along it
Protein,"in vitro acetylation of BACE1 with [3H]acetylCoA, scintillation counting [1]","acetylation of BACE1 with non-radiolabeled acetylCoA, Western blot with anti-acetylated lysine [2]",acetyltransferase activity of ERGIC fractions (acceptor: affinity purified BACE1) [2],average cpm/assay ([3H]acetyl incorporated into BACE1) [2],"in vitro acetylation of BACE1 with [3H]acetylCoA, scintillation counting [2]"
B1,purified ATase1 was able to acetylate BACE1WT but not BACE1Arg,clearly indicate that ATase1 can acetylate BACE1,ERGIC fractions from ATase1-expressing cells displayed increased (~2-fold) acetyltransferase activity,The average cpm/assay for ATase1 was 1737±486,purified ATase1 was able to acetylate BACE1WT but not BACE1Arg
B2,,there was a marked increase in the acetylation of both the immature and partially-mature forms of BACE1,,,
